Assay results from US5156956A, “Transgultaminase” (Ajinomoto Co., Inc., priority 1987, dated 1992).

Tests used:
Assay in all cases: Gelation, test tube inversion method
Format in all cases: biochemical
Set-up in all cases: key: .smallcircle.: gelled; Δ: weakly gelled; x: remained as solution
Conditions in all cases: BTGase 0.02 U/mg protein, 55° C., 1 h, MTGase 0.1 U/mg, 37° C.
αS1 -Casein = tested on: αS1 -Casein
Protocol: (§1) 1) The BTGase (freeze dried product, specific activity of 2.50 Units/mg protein) prepared in Example 1 was added to 5 ml of each of 5 and 10 wt. % solutions or suspensions of protein foodstuffs prepared by the method described in Example 1 of Published Unexamined Japanese Patent Application No. 149645/83 or purchased, namely, (1) αsi -casein, (2) Na-caseinate, (3) soybean 11S globulin, (4) soybean 7S globulin, (5) soybean protein isolate "Ajipron S-2" (manufactured by Ajinomoto Co., Inc.), (6) water-extracted soybean protein, (7) acid-precipitated soybean protein, (8) soybean protein particles, (9) soybean protein micelles and (10) gelatin in 0.02 U per 1 mg of protein followed by shake incubation at 55° C. for an hour. After allowing to stand at room temperature, test tubes with samples were turned upside down, whereby gelation was determined by noting whether the samples drifted down or not.
(§2) For purposes of comparison, the results of gelation ability test with MTGase are also shown. The amount of MTGase added was 0.1 U per 1 mg of substrate protein.

[1] = tested on: Water-extracted soybean protein
Protocol: as §1, §2

[2] = tested on: Soybean protein particles
Protocol: as §1, §2

Gelatin = tested on: Gelatin
Protocol: as §1, §2

Na-Caseinate = tested on: Na-Caseinate
Protocol: as §1, §2

[3] = tested on: Ajipron S-2 (soybean protein isolate)
Protocol: as §1, §2

Soybean protein micells = tested on: Soybean protein micells
Protocol: as §1, §2

B1: BTGase: microorganism-derived transglutaminase; in Examples 4-11 the freeze dried product prepared in Example 1 (S. mobaraense, i.e. BTG-1) (protein, UniProt P81453 77-407, looked up)
Protein-glutamine …: DSDDRVTPPAEPLDRMPDPYRPSYGRAETVVNNYIRKWQQVYSHRDGRKQQMTEEQREWLSYGCVGVTWVNSGQYPTNRLAFASFDEDRFKNELKNGRPRSGETRAEFEGRVAKESFDEEKGFQRAREVASVMNRALENAHDESAYLDNLKKELANGNDALRNEDARSPFYSALRNTPSFKERNGGNHDPSRMKAVIYSKHFWSGQDRSSSADKRKYGDPDAFRPAPGTGLVDMSRDRNIPRSPTSPGEGFVNFDYGWFGAQTEADADKTVWTHGNHYHAPNGSLGAMHVYESKFRNWSEGYSDFDRGAYVITFIPKSWNTAPDKVKQGWP
- Gelation, αS1 -Casein 5% (αS1 -Casein; 5%): .smallcircle.
- Gelation, αS1 -Casein 10% (αS1 -Casein; 10%): .smallcircle.
- Gelation, Water-extracted soybean protein 5% ([1]; 5%): .smallcircle.
- Gelation, Water-extracted soybean protein 10% ([1]; 10%): .smallcircle.
- Gelation, Soybean protein particles 5% ([2]; 5%): .smallcircle.
- Gelation, Soybean protein particles 10% ([2]; 10%): .smallcircle.
- Gelation, Gelatin 5% (Gelatin; 5%): .smallcircle.
- Gelation, Gelatin 10% (Gelatin; 10%): .smallcircle.
- Gelation, Na-Caseinate 5% (Na-Caseinate; 5%): .smallcircle.
- Gelation, Na-Caseinate 10% (Na-Caseinate; 10%): .smallcircle.
- Gelation, Ajipron S-2 5% ([3]; 5%): .smallcircle.
- Gelation, Ajipron S-2 10% ([3]; 10%): .smallcircle.
- Gelation, Soybean protein micells 5% (Soybean protein micells; 5%): Δ
- Gelation, Soybean protein micells 10% (Soybean protein micells; 10%): .smallcircle.
